Laboratory results taken from the supplement of paper PMC9170038.

System: MS2 coat protein
Test: apparent KD of MS2 coat protein; designed switch direction (-1 OFF switch, 1 ON switch): -1; higher = weaker reporter binding
Summary of the method: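 Designed RNA switches were transcribed on Illumina chips by stalled E. coli RNA polymerase and titrated with SNAP-549-labelled MS2 coat protein from 0.7 or 1.5 nM, doubling to 3 µM. Step length ran from 0.8–1.5 h at the lowest concentration to 10–20 min at the highest. The apparent KD is the median over clusters for each design, from curve-fitted normalised cluster fluorescence.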

[1] = Eterna round: R95, input ligand: microRNA oligo, concentration not stated

For “GGCCUUCCGCGAGCUUUUUACAUGAGGAUCACCCAUGUGGUUUUUAGUCUUAUCCCGGGCCCGGUGUCGGGCCCGGG [-32.9, -53.8, A 12%] (Eterna round: R97, puzzle: Sensor, turn-off variant 1)”, the “apparent KD of MS2 coat protein” value (input ligand: FMN 200 uM) was 29.8 nM and the “apparent KD of MS2 coat protein” value (input ligand: none) was 30.2 nM.

For “GGCCUUCCGCGAGCUUUUUACAUGAGGAUCACCCAUGUGGUUUUUAGUCUUAUCCGGCCGGCCGUGUGGCCGGCCGG [-32.9, -53.8, A 12%] (Eterna round: R97, puzzle: Sensor, turn-off variant 1)”, the “apparent KD of MS2 coat protein” value (input ligand: FMN 200 uM) was 26.1 nM and the “apparent KD of MS2 coat protein” value (input ligand: none) was 30.4 nM.

With “GGCGAAGUAGGAUAUACAUGAGGAUCACCCAUGUAACCUGAUGGCGUAGGUCUUCUAUGUAGAAGGACUACGCC [jl-ex3-4.39 ViennaUCT mod] (Eterna round: R97, puzzle: Exclusion 3)” the “apparent KD of MS2 coat protein” value (input ligand: FMN 200 uM) was 15.9 nM and the “apparent KD of MS2 coat protein” value (input ligand: none) was 18.1 nM.

“GGCGCACAUGAGGAUCACCCAUGUGAGGAUAUUAGGCGAUCGUCGAAAGACGAUAGCCUGAGAAGGCACAUGCC [Eli x1 4.19] (Eterna round: R97, puzzle: Exclusion 1)” was tested, and the “apparent KD of MS2 coat protein” value (input ligand: FMN 200 uM) was 154 nM and the “apparent KD of MS2 coat protein” value (input ligand: none) was 33.1 nM.

With “GGCGCCUGAGGAUAUCAGUCUGGAUCAGAAAAGAUCCUGACUGAGAAGGCACAUGAGGAUCACCCAUGUUCGCC [Mat - Exclusion 4 - Eli Mod - D51] (Eterna round: R97, puzzle: Exclusion 4)” the “apparent KD of MS2 coat protein” value (input ligand: FMN 200 uM) was 14.5 nM and the “apparent KD of MS2 coat protein” value (input ligand: none) was 14.7 nM.

For “GGCUAGUCAGGAUAUACGAACAUGUCAAAAGACGUGAAGGGACAUGAGGAUCACCCAUGUAGAAGGGACUAGCA [salish99-ex2-12] (Eterna round: R96, puzzle: Exclusion 2)”, the “apparent KD of MS2 coat protein” value (input ligand: FMN 200 uM) was 187 nM, the “apparent KD of MS2 coat protein” value (input ligand: microRNA oligo, concentration not stated) was 21 nM and the “apparent KD of MS2 coat protein” value (input ligand: none) was 28 nM.

For “GGCUAGUCAGGAUAUACGAACAUGUCAAAAGACGUGAAGGGACAUGAGGAUCACCCAUGUAGAAGGGACUAGCA [salish99_ex2_r3_001] (puzzle: Exclusion 2)”, the “apparent KD of MS2 coat protein” value [1] was 23.5 nM.

“GGGAAGGGAGGAUAUGAGGAAGAGAACAUGAGGAUCACCCAUGUGAGGCCUCAGGAUCGAUCAGAAGGCCCGAUCC [AK-MS2ROC-r4-exclusion5-15] (Eterna round: R97, puzzle: Exclusion 5)” was tested, and the “apparent KD of MS2 coat protein” value (input ligand: FMN 200 uM) was 297 nM and the “apparent KD of MS2 coat protein” value (input ligand: none) was 142 nM.

For “GGGCAAUUAGGAUAUACAUGAGGAUCACCCAUGUGGAAGCCCGGACAGGUAAUCCACUGUAGAAGGGAUUGCCA [Anareor] (puzzle: Exclusion 3)”, the “apparent KD of MS2 coat protein” value [1] was 10.7 nM.

In the case of “GGGCCCGGUGUGAGGAUAUGCUCGGGUAAAUCUGGGUAGAAGGCACAUGAGGAUCACCCAUGUAAGCCGGGCCC [-34.4, -32.3 kcal, A 23%, 7bis-0] (Eterna round: R97, puzzle: Brourd's mod of Exclusion 4)”, the “apparent KD of MS2 coat protein” value (input ligand: FMN 200 uM) was 15.2 nM and the “apparent KD of MS2 coat protein” value (input ligand: none) was 19.3 nM.

With “GGGCCCGGUGUGAGGAUAUUUGAAGUGAAAGCUUCGGAGAAGGCACAUGAGGAUCACCCAUGUAAGCCGGGCCC [-35.9, -33.8 kcal, A 26%, 3bis-0] (Eterna round: R97, puzzle: Brourd's mod of Exclusion 4)” the “apparent KD of MS2 coat protein” value (input ligand: FMN 200 uM) was 16.1 nM and the “apparent KD of MS2 coat protein” value (input ligand: none) was 13.4 nM.

For “GGGCGUGAAGGAUAUACAUGAGGAUCACCCAUGUGGGAGGAGAGUGGUGAGGAGGCUGGUAGAAGGUCAGGAGG [JR_Exclusion3_Sub008] (puzzle: Exclusion 3)”, the “apparent KD of MS2 coat protein” value [1] was 27.7 nM.

“GGGCUGUCAGGAUAUGGGCCCGGGCCCGAAAGGGCCCGGGCCCAGAAGGGACAUGAGGAUCACCCAUGUGGCCC [-51.3, -50.3 kcal, A 22%] (Eterna round: R97, puzzle: Exclusion 4)” was tested, and the “apparent KD of MS2 coat protein” value (input ligand: FMN 200 uM) was 43 nM and the “apparent KD of MS2 coat protein” value (input ligand: none) was 37.7 nM.

“GGGCUUCGAGUCAGGAUAUAAGGCCGCUGGCCCAUUUAGAAGGGACUUGAGGAUCACCCAAGUCACCACGGACG [Geceisbi] (Eterna round: R97, puzzle: Brourd's mod of Exclusion 4)” was tested, and the “apparent KD of MS2 coat protein” value (input ligand: FMN 200 uM) was 19.3 nM and the “apparent KD of MS2 coat protein” value (input ligand: none) was 16.8 nM.
